Assay results published in patent US20220162304A1.

Key:
[1] = molecular target: human CD79B antigen (coating antigen of the ELISA, construct not stated) (human) (UniProt P40259); test: ELISA, plate coated with antigen at 1 ug/mL, serial antibody dilutions, OD450
[2] = molecular target: fusion protein of human CD79B extracellular domain (ECD) and His tag (human CD79B ECD-His) (human) (UniProt P40259); test: SPR (Biacore 8K; by Example 2 human CD79B-His immobilised on CM5 chip, antibody flowed over)
Sequence of fusion protein of human CD79B extracellular domain (ECD) and His tag (human CD79B ECD-His) (human) (P40259 29-159 limits assumed): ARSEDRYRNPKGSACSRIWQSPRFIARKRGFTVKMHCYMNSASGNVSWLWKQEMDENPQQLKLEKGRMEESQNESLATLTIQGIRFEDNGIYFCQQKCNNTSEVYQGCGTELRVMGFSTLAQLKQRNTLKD

Sequence of human CD79B antigen (coating antigen of the ELISA, construct not stated) (human) (P40259 29-159 limits assumed): as above

An EC50 (read off the curve) [1] of 0.1 nM and a Kd [2] of 5.98 nM were found for SN8 (antibody) in this work.
